# Reference: PMC10450444
# What was measured:
# [1] = molecular target: full-length VAMP2 (mouse His6-SUMO-VAMP2, residues 1-116) (mouse) (UniProt P63044)
# [2] = molecular target: Syntaxin1 (rat) (UniProt P32851)
# Sequence of Syntaxin1 (rat) (P32851 whole entry, the tested form may be a part): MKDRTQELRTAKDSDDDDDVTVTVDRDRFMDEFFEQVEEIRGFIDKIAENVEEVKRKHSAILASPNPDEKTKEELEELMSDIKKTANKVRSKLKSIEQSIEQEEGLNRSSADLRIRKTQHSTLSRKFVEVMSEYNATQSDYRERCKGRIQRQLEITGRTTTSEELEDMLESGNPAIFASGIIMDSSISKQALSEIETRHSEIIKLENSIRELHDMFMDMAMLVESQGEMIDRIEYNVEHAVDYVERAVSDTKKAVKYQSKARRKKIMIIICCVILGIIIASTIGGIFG
# Sequence of full-length VAMP2 (mouse His6-SUMO-VAMP2, residues 1-116) (mouse) (P63044 whole entry, the tested form may be a part): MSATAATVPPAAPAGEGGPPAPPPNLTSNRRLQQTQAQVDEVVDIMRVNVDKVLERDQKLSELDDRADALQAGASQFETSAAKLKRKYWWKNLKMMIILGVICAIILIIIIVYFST
single-vesicle fusion assay with 500 nM DHG: fraction of immobile clamped vesicles that fused upon 100 µM Ca2+ (wild type ~90%) [1] [%],single-vesicle fusion assay with 500 nM DHG: fraction of immobile clamped vesicles that fused upon 100 µM Ca2+ (wild type ~90%) [2] [%],Substance
20,,Munc13 D1358K (from UniProt Q62768 529-1407; Q62768 1453-1735) (domain or fragment)
,20,Munc13 N1128A/F1131A (from UniProt Q62768 529-1407; Q62768 1453-1735) (domain or fragment)
